Molecular target: T1, MBP-PP1-87B (Drosophila, UniProt P12982 1-302)
T1 construct: Drosophila PP1-87B (orthologue of PP1-gamma); also called MBP-87B; Protein Phosphatase 1; source: E. coli BL21-star, purified with amylose magnetic beads
Test: pull-down; purified 6xHis-N-Mps1 fragments incubated with MBP or MBP-PP1-87B bound to amylose magnetic beads; column buffer 250 mM NaCl, 20 mM Tris-HCl pH 7.4, 1 mM EDTA, 1 mM DTT; 60 min, room temperature; western blot
Conditions: both partners purified

T1 sequence (P12982 whole entry): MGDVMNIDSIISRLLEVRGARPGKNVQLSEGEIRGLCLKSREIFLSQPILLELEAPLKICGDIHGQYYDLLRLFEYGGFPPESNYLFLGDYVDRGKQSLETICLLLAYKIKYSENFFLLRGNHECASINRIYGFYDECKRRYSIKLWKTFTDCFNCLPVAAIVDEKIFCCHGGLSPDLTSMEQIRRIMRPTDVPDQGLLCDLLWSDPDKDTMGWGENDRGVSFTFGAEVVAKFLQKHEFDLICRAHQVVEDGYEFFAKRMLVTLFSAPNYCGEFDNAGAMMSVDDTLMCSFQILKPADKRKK

B1: 6xHis-N-Mps1^WT (domain or fragment, Drosophila, UniProt Q9VEH1 104-330, looked up)
chain: PSQELTNSNSNITTRRTPSAAPLKQSDSNLSFLGRFNDMGINCSSQGSPVANSEKQVAKKTAPTLQAAPSATERRPLQETETPLRNELPSTSKTKPDADFITPQVRTIGSTLAGKSRSAVSNDFRAQKVLFQTPMTVSRAAPVASDSISFSLCDTITESPDIPEPPKKAEPPKSQHPSKKSLDHVFRESDKDNVPDKVDNVEPKELVSIPAVAVPPEQPSHKTSNIL
notes: Drosophila Mps1, N-terminus 104-330 amino acids, cloned into KpnI/XhoI sites of pET30a(+); pET30a(+) may add further vector-coded residues (S-tag) besides the His tag; also called Mps1 N-terminus region (104-330 amino acids); source: E. coli BL21-star, purified with Novex Dynabeads, eluted with imidazole
binding result: binds

Reference: publication PMC5433843, “Protein Phosphatase 1 inactivates Mps1 to ensure efficient Spindle Assembly Checkpoint silencing” (eLife, 2017)
